Measured values reported in PMC12728192 (2025).
Ends that are not written are not given here.

Tests used:
[1] = target: T1, Thermothelomyces thermophilus SAM complex (sorting and assembly machinery complex; Sam50:Sam35:Sam37, monomer) (Thermothelomyces thermophilus); assay: MST; replicate 1; detergent
[2] = target: T1, Thermothelomyces thermophilus SAM …; assay: MST; replicate 6; detergent
[3] = target: T1, Thermothelomyces thermophilus SAM …; assay: MST; replicate 3; detergent

T1 sequence (chain, as listed by the source, chain 1 of 3): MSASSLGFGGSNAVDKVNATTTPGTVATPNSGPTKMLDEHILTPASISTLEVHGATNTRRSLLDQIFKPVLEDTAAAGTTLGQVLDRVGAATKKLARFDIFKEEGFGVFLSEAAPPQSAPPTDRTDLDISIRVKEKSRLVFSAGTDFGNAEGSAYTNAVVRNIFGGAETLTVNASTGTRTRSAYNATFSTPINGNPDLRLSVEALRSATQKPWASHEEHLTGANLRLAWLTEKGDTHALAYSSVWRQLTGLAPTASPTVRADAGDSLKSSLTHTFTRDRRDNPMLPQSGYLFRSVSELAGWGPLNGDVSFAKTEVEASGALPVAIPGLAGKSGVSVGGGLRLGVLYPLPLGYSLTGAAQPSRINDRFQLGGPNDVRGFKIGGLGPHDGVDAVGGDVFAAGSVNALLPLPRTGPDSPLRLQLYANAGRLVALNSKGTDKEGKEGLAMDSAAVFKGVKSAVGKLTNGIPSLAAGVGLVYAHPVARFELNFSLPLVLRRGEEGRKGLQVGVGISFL
T1 sequence (chain, as listed by the source, chain 2 of 3): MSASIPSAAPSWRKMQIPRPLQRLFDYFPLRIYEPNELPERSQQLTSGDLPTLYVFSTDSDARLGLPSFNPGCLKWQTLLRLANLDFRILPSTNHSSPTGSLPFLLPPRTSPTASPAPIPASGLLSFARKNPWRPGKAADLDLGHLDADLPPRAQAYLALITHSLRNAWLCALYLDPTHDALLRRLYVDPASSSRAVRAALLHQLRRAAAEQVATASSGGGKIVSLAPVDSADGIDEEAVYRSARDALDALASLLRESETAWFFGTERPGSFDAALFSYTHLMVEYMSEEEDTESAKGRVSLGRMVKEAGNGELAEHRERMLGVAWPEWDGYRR
T1 sequence (chain, as listed by the source, chain 3 of 3): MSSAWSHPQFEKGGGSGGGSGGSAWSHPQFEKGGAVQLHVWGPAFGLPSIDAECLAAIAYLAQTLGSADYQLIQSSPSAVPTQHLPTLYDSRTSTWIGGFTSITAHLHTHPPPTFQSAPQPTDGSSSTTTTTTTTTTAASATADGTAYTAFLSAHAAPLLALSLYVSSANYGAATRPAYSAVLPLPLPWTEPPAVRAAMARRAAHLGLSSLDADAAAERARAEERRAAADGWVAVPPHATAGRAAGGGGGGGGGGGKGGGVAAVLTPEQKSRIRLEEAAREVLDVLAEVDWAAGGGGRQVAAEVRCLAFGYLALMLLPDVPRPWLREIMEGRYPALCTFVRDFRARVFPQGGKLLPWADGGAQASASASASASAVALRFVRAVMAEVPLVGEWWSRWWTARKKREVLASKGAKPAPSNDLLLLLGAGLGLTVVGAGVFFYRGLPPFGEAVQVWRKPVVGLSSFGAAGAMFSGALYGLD

Binder | Kd [1] | Kd [2] | Kd [3]
WNWSKSF (also: backbone cyclizations, places not given here) [darobactin A] | 149 nM | 166 nM | –
WNWSKSF [linear darobactin] | – | – | 491000 nM
